Laboratory results taken from paper PMC7337384 (bioRxiv, 2020).

Target: T1, MERS-CoV receptor-binding domain fused to the Fc domain of human IgG1 (MERS-CoV, UniProt K9N5Q8 381-587)
T1 sequence: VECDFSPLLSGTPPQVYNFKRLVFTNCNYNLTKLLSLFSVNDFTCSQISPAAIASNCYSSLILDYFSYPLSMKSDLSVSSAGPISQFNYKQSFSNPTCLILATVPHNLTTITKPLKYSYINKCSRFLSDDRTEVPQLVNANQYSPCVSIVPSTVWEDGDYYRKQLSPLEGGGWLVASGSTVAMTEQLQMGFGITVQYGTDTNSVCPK
Assay: SPR

B1: soluble monomeric human ACE2-NN (enzymatically inactive human ACE2 lacking its active-site histidines) (domain or fragment)
chain: QSTIEEQAKTFLDKFNHEAEDLFYQSSLASWNYNTNITEENVQNMNNAGDKWSAFLKEQSTLAQMYPLQEIQNLTVKLQLQALQQNGSSVLSEDKSKRLNTILNTMSTIYSTGKVCNPDNPQECLLLEPGLNEIMANSLDYNERLWAWESWRSEVGKQLRPLYEEYVVLKNEMARANHYEDYGDYWRGDYEVNGVDGYDYSRGQLIEDVEHTFEEIKPLYEHLHAYVRAKLMNAYPSYISPIGCLPAHLLGDMWGRFWTNLYSLTVPFGQKPNIDVTDAMVDQAWDAQRIFKEAEKFFVSVGLPNMTQGFWENSMLTDPGNVQKAVCHPTAWDLGKGDFRILMCTKVTMDDFLTAHNEMGNIQYDMAYAAQPFLLRNGANEGFHEAVGEIMSLSAATPKHLKSIGLLSPDFQEDNETEINFLLKQALTIVGTLPFTYMLEKWRWMVFKGEIPKDQWMKKWWEMKREIVGVVEPVPHDETYCDPASLFHVSNDYSFIRYYTRTLYQFQFQEALCQAAKHEGPLHKCDISNSTEAGQKLFNMLRLGKSEPWTLALENVVGAKNMNVRPLLNYFEPLFTWLKDQNKNSFVGWSTDWSPYEPEA
Kd: > 35 µM
